Results on 1 molecule are retold here after patent US20110104112A1 (University of California, published 2011).

For the assay, the target named is T1, IFNAR on 38C13 cells (murine, UniProt P33896 27-590; O35664 22-513).
T1 sequence (looked up) 1: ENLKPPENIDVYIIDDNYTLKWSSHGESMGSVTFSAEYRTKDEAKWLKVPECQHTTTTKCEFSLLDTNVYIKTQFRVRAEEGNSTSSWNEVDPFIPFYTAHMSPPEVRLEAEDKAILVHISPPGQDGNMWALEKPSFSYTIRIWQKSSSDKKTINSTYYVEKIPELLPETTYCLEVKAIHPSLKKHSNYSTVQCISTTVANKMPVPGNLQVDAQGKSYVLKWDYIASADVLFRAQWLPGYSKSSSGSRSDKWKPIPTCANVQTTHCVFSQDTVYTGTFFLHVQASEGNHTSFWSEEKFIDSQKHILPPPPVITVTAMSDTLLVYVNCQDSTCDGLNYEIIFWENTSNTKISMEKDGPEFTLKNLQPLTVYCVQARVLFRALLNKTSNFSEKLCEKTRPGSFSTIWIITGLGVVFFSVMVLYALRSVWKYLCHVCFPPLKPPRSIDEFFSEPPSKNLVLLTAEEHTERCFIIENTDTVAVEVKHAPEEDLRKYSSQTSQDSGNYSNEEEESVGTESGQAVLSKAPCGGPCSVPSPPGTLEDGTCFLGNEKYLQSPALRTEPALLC
T1 sequence (looked up) 2: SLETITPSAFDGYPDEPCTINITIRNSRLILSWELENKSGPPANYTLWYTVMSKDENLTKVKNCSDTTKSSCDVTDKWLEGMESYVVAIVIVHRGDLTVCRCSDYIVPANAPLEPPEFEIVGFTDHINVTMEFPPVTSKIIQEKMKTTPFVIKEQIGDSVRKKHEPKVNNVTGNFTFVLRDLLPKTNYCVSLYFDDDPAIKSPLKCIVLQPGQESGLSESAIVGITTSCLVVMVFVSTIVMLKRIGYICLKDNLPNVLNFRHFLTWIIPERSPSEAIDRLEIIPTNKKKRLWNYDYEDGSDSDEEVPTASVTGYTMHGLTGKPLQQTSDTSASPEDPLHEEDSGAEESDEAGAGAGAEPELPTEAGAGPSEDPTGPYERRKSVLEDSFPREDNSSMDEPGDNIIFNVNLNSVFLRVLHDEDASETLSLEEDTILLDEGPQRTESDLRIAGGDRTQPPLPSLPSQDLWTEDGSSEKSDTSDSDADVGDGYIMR
Description: cell-based or functional assay.

B1: anti-CD20/IgG3-mu-IFN-α (other)
heavy: QVQLQQPGAELVKPGASVKMSCKASGYTFTSYNMHWVKQTPGRGLEWIGAIYPGNGDTSYNQKFKGKATLTADKSSSTAYMQLSSLTSEDSAVYYCARSTYYGGDWYFNVWGAGTTVTVSAASTKGPSVFPLAPCSRSTSGGTAALGCLVKDYFPEPVTVSWNSGALTSGVHTFPAVLQSSGLYSLSSVVTVPSSSLGTQTYTCNVNHKPSNTKVDKRVELKTPLGDTTHTCPRCPEPKSCDTPPPCPRCPEPKSCDTPPPCPRCPEPKSCDTPPPCPRCPAPELLGGPSVFLFPPKPKDTLMISRTPEVTCVVVDVSHEDPEVQFKWYVDGVEVHNAKTKLREEQYNSTFRVVSVLTVLHQDWLNGKEYKCKVSNKALPAPIEKTISKAKGQPREPQVYTLPPSREEMTKNQVSLTCLVKGFYPSDIAVEWESNGQPENNYNTTPPMLDSDGSFFLYSKLTVDKSRWQQGNIFSCSVMHEALHNHYTQKSLSLSPGKSGGGGSCDLPQTHNLRNKRALTLLVQMRRLSPLSCLKDRKDFGFPQEKVDAQQIKKAQAIPVLSELTQQILNIFTSKDSSAAWNATLLDSFCNDLHQQLNDLQGCLMQQVGVQEFPLTQEDALLAVRKYFHRITVYLREKKHSPCAWEVVRAEVWRALSSSANVLGRLREEK
light: QIVLSQSPAILSASPGEKVTMTCRASSSVSYIHWFQQKPGSSPKPWIYATSNLASGVPVRFSGSGSGTSYSLTISRVEAEDAATYYCQQWTSNPPTFGGGTKLEIK
For the molecule B1, the “IC50 (pM) 38C13-CD20, cell viability, MTS assay” value was 76.4 pM and the “IC50 (pM) 38C13-CD20-IFNR Knock Down, cell viability, MTS assay” value was determined as 848 pM.
